To fix the notation:
B1: unnamed (parent)
chain 1: HMGGQDKPFLSAWPSAVVPRGGHVTLRCHYRHRFNNFMLYKEDRIHIPIFHGRIFQESFNMSPVTTAHAGNYTCRGSHPHSPTGWSAPSNPVVIMVTGNHRKPSLLAHPGPLVKSGERVILQCWSDIMFEHFFLHKEGISKDPSRLVGQIHDGVSKANFSIGPMMLALAGTYRCYGSVTHTPYQLSAPSDPLDIVVTGPYEKPSLSAQPGPKVQAGESVTLSCSSRSSYDMYHLSREGGAHERRLPAVRKVNRTFQADFPLGPATHGGTYRCFGSFRHSPYEWSDPSDPLLVSVTGNPSSSWPSPTEPSSKSGNPRHLHILIGTSVVIILFILLLFFLLHLWCSNKKNAAVMDQEPAGNRTANSEDSDEQDPEEVTYAQLDHCVFTQRKITRPSQRPKTPPTDTILYTELPNAKPRSKVVSCP
chain 2: not shown
chain 3: not shown
chain 4: TSTLQEQIDW

Variants of B1 are the subject of this assay. The assay can be described thus: tetramer staining of transfected HEK293 cells. To be noted: with partner chain of the complex shown; 0.2 μg tetramer; read off a plot.
In the case of chain 1 L166V, the response (% of *001 TW10) is 46.

As for chain 1 L166A, the response (% of *001 TW10) was found to be 90.

With chain 1 A167G, the response (% of *001 TW10) came out at 10.

As for chain 1 E282A, the response (% of *001 TW10) amounted to 26.

As for chain 1 E282Q, the response (% of *001 TW10) was 130.

The record behind these values is PMC3948114.
